Source: patent publication US9938505B2, “Polypeptide composition and culture method for pluripotent stem cell using same” (FUJIFILM Corporation, priority 2013, dated 2018)

B1: Natural vitronectin: human vitronectin extracted from human blood plasma, BD Biosciences (protein, UniProt P04004 20-478, looked up)
Vitronectin: DQESCKGRCTEGFNVDKKCQCDELCSYYQSCCTDYTAECKPQVTRGDVFTMPEDEYTVYDDGEEKNNATVHEQVGGPSLTSDLQAQSKGNPEQTPVLKPEEEAPAPEVGASKPEGIDSRPETLHPGRPQPPAEEELCSGKPFDAFTDLKNGSLFAFRGQYCYELDEKAVRPGYPKLIRDVWGIEGPIDAAFTRINCQGKTYLFKGSQYWRFEDGVLDPDYPRNISDGFDGIPDNVDAALALPAHSYSGRERVYFFKGKQYWEYQFQHQPSQEECEGSSLSAVFEHFAMMQRDSWEDIFELLFWGRTSAGTRQPQFISRDWHGVPGQVDAAMAGRIYISGMAPRPSLAKKQRFRHRNRKGYRSQRGHSRGRNQNSRRPSRATWLSLFSSEESNLGANNYDDYRMDWLVPATCEPIQSVFFFSGDKYYRVNLRTRRVDTVDPPYPRSIAQYWLGCPAPGHL
B2: RCP-6: recombinant polypeptide SEQ ID NO: 19; human vitronectin positions 1-55, 270-459, C274S, C411S, C453S (protein)
chain: MDQESCKGRCTEGFNVDKKCQCDELCSYYQSCCTDYTAECKPQVTRGDVFTMPEDESQEESEGSSLSAVFEHFAMMQRDSWEDIFELLFWGRTSAGTRQPQFISRDWHGVPGQVDAAMAGRIYISGMAPRPSLAKKQRFRHRNRKGYRSQRGHSRGRNQNSRRPSRATWLSLFSSEESNLGANNYDDYRMDWLVPATSEPIQSVFFFSGDKYYRVNLRTRRVDTVDPPYPRSIAQYWLGSPAPGHL
modifications: Synthetic peptide RCP-6
notes: human vitronectin positions 1-55, 270-459, C274S, C411S, C453S
B3: RCP-8: recombinant polypeptide SEQ ID NO: 21; human vitronectin positions 1-55, 270-373, 374-379, C274S (protein)
chain: MDQESCKGRCTEGFNVDKKCQCDELCSYYQSCCTDYTAECKPQVTRGDVFTMPEDESQEESEGSSLSAVFEHFAMMQRDSWEDIFELLFWGRTSAGTRQPQFISRDWHGVPGQVDAAMAGRIYISGMAPRPSLAKKQRFRHRNRKGYRSQRGHSRGRNQNSRRPSR
modifications: Synthetic peptide RCP-8
notes: human vitronectin positions 1-55, 270-373, 374-379, C274S
B4: RCP-7: recombinant polypeptide SEQ ID NO: 20; human vitronectin positions 1-55, 270-373, C274S (protein)
chain: MDQESCKGRCTEGFNVDKKCQCDELCSYYQSCCTDYTAECKPQVTRGDVFTMPEDESQEESEGSSLSAVFEHFAMMQRDSWEDIFELLFWGRTSAGTRQPQFISRDWHGVPGQVDAAMAGRIYISGMAPRPSLAKKQRFRHRNRKGYRSQRGHSRGRNQN
modifications: Synthetic peptide RCP-7
notes: human vitronectin positions 1-55, 270-373, C274S
B5: RCP-17: recombinant polypeptide SEQ ID NO: 39; human vitronectin positions 1-55, 270-277, 295-341, 342-373, C274S (protein)
chain: MDQESCKGRCTEGFNVDKKCQCDELCSYYQSCCTDYTAECKPQVTRGDVFTMPEDESQEESEGSEDIFELLFWGRTSAGTRQPQFISRDWHGVPGQVDAAMAGRIYISGMAPRPSLAKKQRFRHRNRKGYRSQRGHSRGRNQN
modifications: Synthetic peptide RCP-17
notes: human vitronectin positions 1-55, 270-277, 295-341, 342-373, C274S

Legend:
iPS cells = experiment: Evaluation of maintenance of undifferentiated state (colony form, NANOG staining); assay type: cell-based, human; details: FIGS. 4A to 4E; after culture for 1 month
Experimental: iPS cells collected in the same manner as in <Cell adhesiveness evaluation 1> were suspended in TeSR2. The iPS cells were seeded into 6-well plate (Tissue culture-treated, Falcon), onto which each of the samples 1, 2, 5, 6, and 7 used in <Cell adhesiveness evaluation 1> was adsorbed in the same manner as in <Cell adhesiveness evaluation 1>, and cultured in a CO2 incubator at 37° C. Except for the day after the seeding, the medium was replaced every day. In the same method as described above, the cells were subcultured every six days. FIGS. 3A to 3E show forms of the iPS cells cultured on each of the samples.
After being cultured for 1 month under the conditions described above, the cells were immobilized using 4% paraformaldehyde and treated with 1% Triton-X/PBS so as to enhance the membrane permeability. After the cells were subjected to a blocking treatment using an IMAGE IT SIGNAL ENHANCER (trade name, Invitrogen), an anti-human NANOG antibody (AF 1997, R&D Systems, Inc.), an ALEXA FLUOR 555 binding rabbit anti-goat IgG antibody (Invitrogen), and DAPI (Dojindo Molecular Technologies, Inc.) were added thereto for labeling, and the cells were imaged using a fluorescence microscope. FIGS. 4A to 4E show the fluorescence microscopic images.
FIGS. 3A and 4A show the iPS cells cultured on RCP-1; FIGS. 3B and 4B show the iPS cells cultured on RCP-11; FIGS. 3C and 4C show the iPS cells cultured on natural human vitronectin; FIGS. 3D and 4D show the iPS cells cultured on rLaminin-5; and FIGS. 3E and 4E show the iPS cells cultured on rLaminin-511. The scale bar in the images indicates […]. In FIGS. 3A to 3E, the images on the left side are full images of the colony, and the images on the right side are magnified images. In FIGS. 4A to 4E, the images on the left side are images of the cells stained with DAPI, and the images on the right side are images of the cells stained with an anti-NANOG antibody. The scale bar in FIGS. 3A to 4E indicates 200 μm.

[1] = Aggregation after dialysis (removal of urea); assay type: physicochemical; details: after stepwise dialysis against PBS, 1.5 M NaCl, 0.5 M L-arginine, 1 mM EDTA, pH 7.4
Experimental: For RCP-1 to RCP-10 and RCP-17, each of the purified polypeptide solutions was dialyzed using SLIDE-A-LIZER (trade name, 3.5 K MWCO.). Basically, by using a dialysis buffer (PBS, 1.5 M NaCl, 0.5 M L-arginine, 1 mM EDTA, pH 7.4) as an outer dialysate, urea was removed by stepwise dialysis. The concentration of the end-product of dialysis was calculated from the absorbence at 280 nm by using NANODROP (trade name, Thermo Fisher Scientific Inc.).
Furthermore, the indices of hydrophobicity determined for each of the amino acids were summed up, the obtained value was divided by the number of the amino acids, and the outcome was determined as the GRAVY value (see Kyte J., Doolittle R. F. (1982), J. Mol. Biol, 157: 105-132). The GRAVY value is an index of the hydrophilicity and hydrophobicity of a polypeptide calculated from the degree of hydrophobicity of the amino acids contained in each polypeptide. The greater the GRAVY value, the more the polypeptide is hydrophobic, and the smaller the GRAVY value, the more the polypeptide is hydrophilic. The results are shown in Table 4. • Whether or not aggregation was occurred was evaluated based on the scale of G, A, and B as shown below. The results are summarized in Table 4. • G: The formation of an aggregate was not observed. • A: The formation of particles having a particle size of about 100 nm was observed. • B: The formation of an aggregation of particles having a particle size of equal to or greater than 1 mm was visually observed.

Row | Molecule | NANOG expression / maintenance of undifferentiated state (iPS cells) | Aggregation [1]
1 | B1 | strongly expressed NANOG in the entirety of the colony | –
2 | B2 | – | A (The formation of particles having a particle size of about 100 nm was observed.)
3 | B3 | – | A (The formation of particles having a particle size of about 100 nm was observed.)
4 | B4 | – | A (The formation of particles having a particle size of about 100 nm was observed.)
5 | B5 | – | A (The formation of particles having a particle size of about 100 nm was observed.)
